Measured values published in patent publication US20110014213A1 (JURIDICAL FDN THE CHEMO SERO THERAP RES INS, published 2011).
Residue numbers refer to the chain shown, from its start.

T1: mouse α9 integrin (mouse, UniProt B8JK39 29-1036)
T1 chain: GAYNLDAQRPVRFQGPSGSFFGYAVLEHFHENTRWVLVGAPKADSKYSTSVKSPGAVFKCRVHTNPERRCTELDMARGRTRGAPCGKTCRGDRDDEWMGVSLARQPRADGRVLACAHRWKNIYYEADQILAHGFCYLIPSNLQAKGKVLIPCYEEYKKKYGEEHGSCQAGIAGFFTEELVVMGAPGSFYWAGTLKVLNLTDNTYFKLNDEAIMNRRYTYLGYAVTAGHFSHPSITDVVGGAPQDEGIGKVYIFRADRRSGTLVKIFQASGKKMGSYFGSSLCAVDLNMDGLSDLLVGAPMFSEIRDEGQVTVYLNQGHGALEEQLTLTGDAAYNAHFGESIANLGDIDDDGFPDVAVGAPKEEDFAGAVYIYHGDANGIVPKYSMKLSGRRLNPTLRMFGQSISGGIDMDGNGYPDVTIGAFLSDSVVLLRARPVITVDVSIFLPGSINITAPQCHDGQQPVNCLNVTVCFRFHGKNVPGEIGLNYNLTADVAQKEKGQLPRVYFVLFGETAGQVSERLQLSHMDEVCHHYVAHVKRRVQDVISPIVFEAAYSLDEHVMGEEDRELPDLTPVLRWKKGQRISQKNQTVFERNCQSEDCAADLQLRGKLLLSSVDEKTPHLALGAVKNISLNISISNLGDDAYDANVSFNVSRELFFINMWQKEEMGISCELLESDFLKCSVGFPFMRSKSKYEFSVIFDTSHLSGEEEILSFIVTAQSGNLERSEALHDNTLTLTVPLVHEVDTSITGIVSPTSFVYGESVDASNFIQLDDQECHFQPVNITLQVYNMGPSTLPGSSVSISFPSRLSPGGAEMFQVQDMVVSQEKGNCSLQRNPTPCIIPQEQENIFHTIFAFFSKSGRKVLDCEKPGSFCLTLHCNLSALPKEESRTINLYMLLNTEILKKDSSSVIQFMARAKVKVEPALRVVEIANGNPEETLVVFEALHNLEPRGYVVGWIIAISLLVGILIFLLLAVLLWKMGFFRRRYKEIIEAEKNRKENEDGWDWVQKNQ

T2: human α9 integrin (human, UniProt Q13797 30-1035)
T2 sequence: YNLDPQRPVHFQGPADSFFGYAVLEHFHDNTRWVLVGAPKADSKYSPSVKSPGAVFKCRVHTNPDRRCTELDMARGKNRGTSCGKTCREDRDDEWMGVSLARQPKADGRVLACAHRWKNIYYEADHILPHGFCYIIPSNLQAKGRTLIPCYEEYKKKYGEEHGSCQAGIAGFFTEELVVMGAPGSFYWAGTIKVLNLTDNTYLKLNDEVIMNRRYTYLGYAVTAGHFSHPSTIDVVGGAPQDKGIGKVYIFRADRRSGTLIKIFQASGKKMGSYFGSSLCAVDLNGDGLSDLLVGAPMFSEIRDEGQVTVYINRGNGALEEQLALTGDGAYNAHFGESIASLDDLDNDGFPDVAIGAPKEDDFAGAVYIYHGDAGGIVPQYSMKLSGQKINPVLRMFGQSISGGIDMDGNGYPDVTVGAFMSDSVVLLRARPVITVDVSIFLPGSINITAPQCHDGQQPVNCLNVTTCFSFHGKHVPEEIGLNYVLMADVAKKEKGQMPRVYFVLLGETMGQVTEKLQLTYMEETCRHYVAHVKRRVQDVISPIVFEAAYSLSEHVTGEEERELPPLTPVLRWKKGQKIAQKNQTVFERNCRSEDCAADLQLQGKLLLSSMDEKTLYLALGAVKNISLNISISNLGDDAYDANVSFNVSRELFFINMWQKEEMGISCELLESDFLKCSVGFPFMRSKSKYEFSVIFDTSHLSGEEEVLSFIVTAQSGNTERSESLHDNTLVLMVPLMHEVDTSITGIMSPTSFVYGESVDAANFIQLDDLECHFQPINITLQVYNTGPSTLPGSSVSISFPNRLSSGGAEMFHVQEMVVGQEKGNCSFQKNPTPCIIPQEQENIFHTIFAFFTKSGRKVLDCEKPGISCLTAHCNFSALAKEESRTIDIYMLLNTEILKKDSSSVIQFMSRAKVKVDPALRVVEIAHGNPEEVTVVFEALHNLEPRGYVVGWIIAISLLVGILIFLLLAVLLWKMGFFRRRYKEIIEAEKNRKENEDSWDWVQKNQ

B1: HA9-107 scFv-Fc (Fc fusion, not shown: a dimerising Fc or GST)
scFv: EVQLVESGGGVVRPGGSLRLSCAASGFAFGDYGMSWVRQAPGKGLEWVSGINWNGGSTGYADSVKGRFTTSRDNAKNSLYLQMNSLRAEDTALYYCARDENYDILTNEYYYGMDVWGQGTTVTVSSGGGGSGGGGSGGGGSQSVVTQPPSVSAAPGQKVTISCSGSSSNIGNNYVSWYQQLPGTAPKLLIYDNNKRPSGIPDRFSASKSGTSATLGITGLQTGDEADYYCGTWDSSLTVWAFGGGTKLTVLG
B2: HA9-143 scFv-Fc (Fc fusion, not shown: a dimerising Fc or GST)
scFv: B1 scFv with D31E, N107G, E108H
B3: MA9-418 scFv-Fc (Fc fusion, not shown: a dimerising Fc or GST)
scFv: B1 scFv with N107G, E108A
B4: HA9-212 scFv-Fc (Fc fusion, not shown: a dimerising Fc or GST)
scFv: B1 scFv with D31E, K65Q, N107G, E108N
B5: HA9-212 IgG (antibody, V domains shown)
VH: EVQLVESGGGVVRPGGSLRLSCAASGFAFGEYGMSWVRQAPGKGLEWVSGINWNGGSTGYADSVQGRFTTSRDNAKNSLYLQMNSLRAEDTALYYCARDENYDILTGNYYYGMDVWGQGTTVTVSS
VL: QSVVTQPPSVSAAPGQKVTISCSGSSSNIGNNYVSWYQQLPGTAPKLLIYDNNKRPSGIPDRFSASKSGTSATLGITGLQTGDEADYYCGTWDSSLTVWAFGGGTKLTVLG
notes: VH joined to human IgG1 constant region; VL joined to 'human x chain constant region'; Tested as culture supernatant of COS-7 / FreeStyle 293-F cells

Key:
mouse α9 integrin = target: T1, mouse α9 integrin; experiment: cell-based or functional assay
human α9 integrin [1] = target: T2, human α9 integrin; experiment: cell-based or functional assay
human α9 integrin [2] = target: T2, human α9 integrin; experiment: cell-based or functional assay; remark: listed apart in the source
human α9 integrin [3] = target: T2, human α9 integrin; experiment: Cell ELISA of IgG in culture supernatant, anti-human IgG(Fc) detection
Procedure: CHO/mα9 and CHO were seeded on a 96 well plate (costar) at 2×10⁴ cells/100 μL/well, and incubated overnight at 37° C., 5% CO₂. The medium was suctioned, and the cells were washed with PBS, and reacted with phage antibody diluted with 1% BSA/PBS. The detection was performed by using horse-radish peroxidase (HRP)-labeled anti-M13 antibody (Amersham) and TMB (SIGMA) in combination. The absorbance at wavelengths 450 nm and 650 nm was measured by a microplate reader (Molecular Devices).
SW480/mα9, SW480/hα9 and SW480 were used as antigens, 1% BSA/PBS containing 5% FBS was used as a dilution solution, an HRP-labeled anti-mouse IgG antibody (ZYMED) was used for detection, and the rest was performed under the same conditions as in Example 4.
The IgG expression amount in the culture supernatant was quantified by human IgG quantification ELISA, and the reactivity with human α9 and mouse α9 at each IgG concentration was analyzed by Cell ELISA. HRP-labeled anti-human IgG(Fc) antibody (American Qualex) was used for detection, and the rest was performed under the same conditions as in Example 11.

| Binder | IC50 of inhibition of α9-dependent cell adhesion (mouse α9 integrin) [µg/mL] | IC50 of inhibition of α9-dependent cell adhesion (human α9 integrin [1]) [µg/mL] | fold inhibitory activity against human α9-dependent cell adhesion, against MA9-413 (human α9 integrin [2]) [fold] | binding result (human α9 integrin [3]) |
| --- | --- | --- | --- | --- |
| B1 | 0.067 | > 10 | – | – |
| B2 | 2.32 | 0.42 | – | – |
| B3 | 0.96 | > 10 | – | – |
| B4 | 3.3 | 0.053 | ~1000 | – |
| B5 | – | – | – | binds |
